Patent US12091399B2, “Phenyltetrazole derivatives as plasma kallikrein inhibitors” (Boehringer Ingelheim International GmbH, priority 2018, dated 2024)

Assays:
[1] = system: Cc1cc(=O)oc2cc(NC(=O)[C@H](CCCNC(=N)N)NC(=O)[C@H](C)NC(=O)[C@H](CCC(=O)OCc3ccccc3)NC(=O)OC(C)(C)C)ccc12; assay: Inhibition of FXIa (Ki); format: biochemical, human; settings: other: substrate KM, enzyme FXIa; pH 7.8; 24.0 °C
Procedure: (§1) The ability of compounds of formula (I) to inhibit plasma kallikrein (PKK), Factor XIIa (FXIIa), Factor XIa (FXIa), Factor Xa (FXa), Factor IIa (alpha-thrombin; FIIa), plasmin, trypsin, tissue kallikrein 1 (TK1), Factor Vila (FVIIa), or FVIIa complexed with Tissue Factor, phospholipids and CaCl2) (FVIIa/TF/PL/CaCl2) was determined using the following biochemical assays in assay buffer (100 mM Tris, 150 mM NaCL, adjusted to a pH of 7.8 with HCl, and containing 0.1% (w/v) BSA and 0.05% (v/v) Tween20) in the presence of 1% (v/v) DMSO:
(§2) Human FXIa (0.5 nM or 0.016 U/mL; Enzyme Research Laboratories) was incubated at 24° C. with 0.25 mM fluorogenic substrate Boc-Glu(OBzl)-Ala-Arg-AMC.HCl (11575 from Bachem) and various concentrations of the test compound in assay buffer. Measurements were performed in a kinetic interval every 2nd minute for 16 min using a Spectramax M5 (Molecular Devices) with the following settings of the wavelength excitation of 350 nm and wavelength emission of 450 nm.
The pIC50 values were then fitted using a four-parametric fitting procedure using GraphPad Prism (version 6; GraphPad Software, Inc.). Respective Ki values were obtained by correction of the IC50 values for the respective KM value of the used substrate (see Table A for the obtained KM values of the used substrates) using the following formula: […]

[2] = system: Cc1cc(=O)oc2cc(NC(=O)[C@H](CCCNC(=N)N)NC(=O)[C@H](Cc3ccccc3)NC(=O)[C@@H]3CCCN3)ccc12; assay: Inhibition of PKK (Ki), kinetic assay; format: biochemical, human; settings: other: substrate KM, enzyme PKK; pH 7.8; 24.0 °C
Procedure: as §1
as §2, with “PKK (1.78” for “FXIa (0.5”, “0.025” for “0.016”, “H-Pro-Phe-Arg-AMC (11295” for “Boc-Glu(OBzl)-Ala-Arg-AMC.HCl (11575”, “nm. The number of the compound corresponds to the number of the Example in the experimental section.” for “nm.”
The pIC50 values were then fitted using a four-parametric fitting procedure using GraphPad Prism (version 6; GraphPad Software, Inc.). […]

Sequence of Human PKK (Homo sapiens) (chain, as listed by the source): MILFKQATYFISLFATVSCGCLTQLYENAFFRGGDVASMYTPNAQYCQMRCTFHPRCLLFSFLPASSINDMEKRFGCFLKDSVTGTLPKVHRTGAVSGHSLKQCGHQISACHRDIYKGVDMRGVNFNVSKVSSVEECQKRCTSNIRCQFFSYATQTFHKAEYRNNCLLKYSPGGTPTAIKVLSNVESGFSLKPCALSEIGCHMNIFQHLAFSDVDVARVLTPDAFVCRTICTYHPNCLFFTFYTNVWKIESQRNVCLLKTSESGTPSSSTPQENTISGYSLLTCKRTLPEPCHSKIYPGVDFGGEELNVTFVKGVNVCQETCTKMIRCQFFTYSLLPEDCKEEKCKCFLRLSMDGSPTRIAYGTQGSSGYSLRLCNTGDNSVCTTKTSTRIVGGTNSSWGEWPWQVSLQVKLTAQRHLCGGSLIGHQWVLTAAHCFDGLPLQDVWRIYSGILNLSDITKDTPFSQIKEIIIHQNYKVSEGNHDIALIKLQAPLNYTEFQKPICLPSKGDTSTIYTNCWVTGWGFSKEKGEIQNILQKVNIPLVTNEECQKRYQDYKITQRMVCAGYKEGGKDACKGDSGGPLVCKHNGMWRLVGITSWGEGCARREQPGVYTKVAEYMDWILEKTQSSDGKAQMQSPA

| Substance | Km [1] | Km [2] |
| --- | --- | --- |
| Human FXIa (Homo sapiens) | 290 µM |  |
| Human PKK (Homo sapiens) |  | 160 µM |
